Test results published in patent publication US20170204182A1.
Where a chain is given by its changes, count along the chain named.

T1: CD81 (UniProt P60033)
T1 sequence (looked up): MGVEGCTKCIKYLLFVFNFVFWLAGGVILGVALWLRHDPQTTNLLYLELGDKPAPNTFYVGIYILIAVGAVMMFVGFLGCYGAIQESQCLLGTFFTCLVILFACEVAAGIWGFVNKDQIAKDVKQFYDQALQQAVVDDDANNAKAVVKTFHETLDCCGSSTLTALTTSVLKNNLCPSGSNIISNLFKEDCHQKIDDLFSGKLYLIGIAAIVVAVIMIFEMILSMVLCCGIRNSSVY

B1: CD81K13 HC 04-hVH_1_69 / LC 05-hVK_1_39 (antibody, V domains shown)
VH: EVQLVESGGGLVQPGRSLRLSCTASGFNFKDSYLHWVRQAPGQGLEWMGRIDTGNGNVKFDPKFQGRVTITADESTSTAYMELSSLRSEDTAVYYCVPYGYGFHSWGQGTLVTVSS
VL: DIQMTQSPSSLSASVGDRVTITCRASENIYRTLAWYQQKPGKAPKLLIYAATTLASGVPSRFSGSGSGTDFTLTISSLQPEDFATYYCQHFWGTPWTFGQGTKVEIK
B2: CD81K13 HC 04-hVH_1_69 / LC 5b-hVK_1_39 (antibody, V domains shown)
VH: B1 VH
VL: B1 VL with A50G, S56D
B3: CD81K13 HC 04-hVH_1_69 / LC 5b-hVK_1_39-GA (antibody, V domains shown)
VH: B1 VH
VL: B1 VL with A50G, S56D
B4: CD81K13 HC 04-hVH_1_69 / LC 06-hVK_1_39 (antibody, V domains shown)
VH: B1 VH
VL: B1 VL with A84G
B5: CD81K13 HC 04-hVH_1_69 / LC 07-hVK_1_27 (antibody, V domains shown)
VH: B1 VH
VL: B1 VL with A43V, F83V, A84G, H90K
B6: CD81K04 HC JA_GG-14-hVH_1_69 / LC JA_GG-07-hVK_7_3 (antibody, V domains shown)
VH: QVQLVQSGAEVKKPGSSVKVSCKASGYTFSSSWMNWVRQAPGQGLEWMGRIYSGDGDAIYNGKFKGKATITADESTSTAYMELSSLRSEDTAVYYCAREGKTGDLLLRSWGQGTLVTVSS
VL: DIVLTQSPASLAVSPGQRATITCRASKSVSTSIYSYMHWYQQKPGQPPKLLIKYASNKDTGVPARFSGSGSGTDFTLTINPVEANDAANYYCLHSREFPYTFGQGTKLEIK
B7: CD81K04 HC GG-05-hVH_1_18 / LC JA_GG-10-hVK_4_1 (antibody, V domains shown)
VH: QVQLVQSGAEVKKPGASVKVSCKASGYTFSSSWMNWVRQAPGQGLEWMGRIYSGDGDAIYAQKLQGRVTMTTDTSTSTAYMELRSLRSDDTAVYYCAREGKTGDLLLRSWGQGTLVTVSS
VL: DIVMTQSPDSLAVSLGERATINCRASKSVSTSIYSYMHWYQQKPGQPPKLLIKYASYLESGVPDRFSGSGSGTDFTLTISSLQAEDVAVYYCEHSREFPFTFGQGTKLEIK
B8: CD81K04 HC JA_GG-14-hVH_1_69 / LC GG-04-hVK_4_1 (antibody, V domains shown)
VH: B6 VH
VL: B7 VL with R24K, A25S, M37L, H38A, K53Y, Y57T, L58R, E93Q, F100Y

Molecular target: T1, CD81
Assay: cell ELISA

Row | Binder | ELISA absorbance
1 | B1 | 0.776
2 | B2 | 0.428
3 | B3 | 0.403
4 | B4 | 0.386
5 | B5 | 0.085
6 | B6 | 0.107
7 | B7 | 0.841
8 | B8 | 0.107
